Consider five molecules from patent US20250250357A1 (NANJING ZAIMING PHARMACEUTICAL, published 2025).

B1: S009-F5-9.16 chimeric antibody (antibody, human IgG1, kappa, V domains shown)
VH: EVQLRQSGPVLVKPGASVKMSCKASGYTFTDYFMNWVKPSHGKSLEWIGVINPSNGVINYNQRFKGKATLTVDKSSSTAYMELNSLTSEDSAVYYCARSYDFAWFAYWGQGTLVTVSA
VL: DVLMTQTPLSLPVSLGDQASISCRSSQNIVHSNGNTYLEWYLQKPGQSPKLLIYTVSNRFSGVPDRFSGSGSGTDFTLKISRVEAEDLGVYYCFQGSHVPYTFGGGTKLEIKR
notes: Human-murine chimeric antibody, human IgG1/kappa constant regions
B2: S009-F6-76.1 chimeric antibody (antibody, human IgG1, kappa, V domains shown)
VH: QVQLQQSGPELVKPGASVKISCKASGYTFTDYYINWVKQRPGQGLEWIGWIFPGRGSTFYYEKFKGKATLTVDKSSSTAYMLLSSLTSEDSAVYFCARRGDSAGYEDLDYWGQGTSVTVSS
VL: NIVMTQSPKFMSMSVGERVTLSCKASENVVTYVSWYQQKPKQSPKLLIYGASKRYTGVPDRFTGSGSATDFTLTISSVQAEDLGDYHCGQSYSYPYTFGGGTKLEIKR
notes: as for B1
B3: S009-F6-62.5 chimeric antibody (antibody, human IgG1, kappa, V domains shown)
VH: QVQLQQPGTELVKPGASVKLSCRASGYTFTAYWMHWVKQRPGQGLEWIGNINPSNGGTDFNEKFKSKATLTVDKSSSTAYMQLSSLTSEDSAVYYCARGRGYFDVWGTGTTVTVSS
VL: DILLTQSPAILSVSPGERVSFSCRASKNIGTSIHWYQQRTNGSPRLLIKYASESISGIPSRFSGSGSGTDFTLNINSVESEDIADYYCQQSNSWPTLTFGAGTKLELKR
notes: as for B1
B4: S009-F4-127.10 chimeric antibody (antibody, human IgG1, kappa, V domains shown)
VH: EVQLQQSGPVLVKPGASVKMSCKASGYTFTDYYMNWVKQSHGKSPEWIGVINPYNDVISYNQKFKGKATLTVDKSSSTAYMELNSLTSEDSAVYYCANYGSSYYAMDYWGQGTSVTVSS
VL: DVVMTQTPLSLSVSLGDQASISCRSSQSLVHSNGNTYLQWSLQKPGQSPNLLIYKVSNRFSGVPDRFSGSGSGTDFTLKISRVEAEDLGVYFCSQTTHVPFTFGGGTKLEIRR
notes: as for B1
B5: S009-F4-94.15 chimeric antibody (antibody, human IgG1, kappa, V domains shown)
VH: QVQLHQPGAELVRPGSSVKLSCKASGYTFTSYWVHWVQQRPRQGLEWIGNIDPSDSEIHYNQKFKDKATLTVDKSSSTAYIHLSRLTSEDSAIYYCVRGGVPWFAYWGQGTLVTVSA
VL: QIVLTQSPAIMSASPGEKVTLTCSASSSVSSTYLYWFQQKPGSSPKVWIYSTSNLASGVPARFSGSGSGTSYSLTISSMEAEDAASYFCHQWISYPYTFGGGTKLEIKR
notes: Human-murine chimeric antibody: murine VH/VL on human IgG1 heavy and kappa light constant regions

One experiment concerns the target T1, human MSLN-R3-3 polypeptide (human).
T1 construct: Part of region R3 of human MSLN; also called hMSLN-R3-3; human MSLN-R3-3 protein
As to the kind of experiment: ELISA, coated antigen, antibody 0.01 nM. In general terms: An ELISA detects its analyte on a solid surface through an enzyme-linked reagent.
Protocol: (§1) The plate was sealed with a plastic film and incubated at 4° C. overnight. The next day, the plate was washed twice with PBST, and a blocking buffer [PBS+2% (w/w) BSA] was added for blocking at room temperature for 2 h. The blocking buffer was discarded, and a chimeric antibody or negative control antibody serially diluted from 100 nM was added at 50 μL/well. After incubation at 37° C. for 2 h, the plate was washed 3 times with PBST. […] After incubation at 37° C. for 2 h, the plate was washed 5 times with PBST. A TMB substrate was added at 50 μL/well for incubation at room temperature for 5-10 min, and then a stop solution (1.0 N HCl) was added at 50 μL/well.
Molecule B1 showed an OD450 of 0.04.
On the same count and under the same terms, the value for B2 was 0.05; that for B3 was 0.04; that for B4 was 0.05.
Regarding B5, the OD450 was determined as 0.05.

In a further experiment the target is T2, human MSLN-R3-his protein (human, UniProt Q13421 487-598).
T2 construct: Made in HEK293E cells, purified on nickel column; also called hMSLN-R3-his; human MSLN-R3 protein; not shown: His tag
T2 sequence (Q13421 495-606): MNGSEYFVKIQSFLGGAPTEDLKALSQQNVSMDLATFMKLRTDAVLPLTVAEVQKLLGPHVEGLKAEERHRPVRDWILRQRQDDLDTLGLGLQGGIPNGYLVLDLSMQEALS
As to the kind of experiment: ELISA, coated antigen, antibody 0.01 nM.
Regarding B1, the OD450 was 1.11.
On the same count and under the same terms, the value for B2 was 0.04; that for B4 was 0.41.
B5 displayed an OD450 of 0.07.

In a further experiment the target is T1, human MSLN-R3-3 polypeptide. As to the kind of experiment: ELISA, coated antigen, antibody 100 nM.
Protocol: as §1
Molecule B1 had an OD450 of 1.99.
As to B2, the OD450 was found to be 0.07.
With B3, the OD450 came out at 0.09.
In turn, B4 yielded an OD450 of 0.14.
Same read-out and setting: then B5, with 0.09.

Another experiment has the same target. As to the kind of experiment: ELISA, coated antigen, antibody 0.001 nM.
Protocol: as §1
B1: the OD450 turned out to be 0.04.
B2 showed an OD450 of 0.04.
Still for that read-out and setting: then B3, with 0.04.
The same measure, in the same setting: then B4, with 0.05.
In turn, B5 returned an OD450 of 0.05.

For another experiment the target is unchanged. As to the kind of experiment: ELISA, coated antigen, no antibody (blank).
With B1, the OD450 came to 0.05.
The same measure, in the same setting: the value for B2 was 0.04; that for B3 was 0.05.
For B4, the OD450 turned out to be 0.07.
The same measure, in the same setting: the value for B5 was 0.07.

For a further experiment, the target named is T2, human MSLN-R3-his protein. As to the kind of experiment: ELISA, coated antigen, antibody 0.0001 nM.
In turn, B1 registered an OD450 of 0.12.
Same read-out and setting: then B2, with 0.04; and B4, with 0.06.
On to B5, for which the OD450 came to 0.05.

The target in another experiment is T1, human MSLN-R3-3 polypeptide. As to the kind of experiment: ELISA, coated antigen, antibody 0.1 nM.
Protocol: as §1
B1: the OD450 worked out at 0.05.
In turn, B2 displayed an OD450 of 0.05.
Same read-out and setting: the value for B3 was 0.04; that for B4 was 0.05.
The same measure, in the same setting: the value for B5 was 0.05.

The next experiment has as its target T2, human MSLN-R3-his protein. As to the kind of experiment: ELISA, coated antigen, antibody 100 nM.
Protocol: as §1
On to B1, for which the OD450 amounted to 2.28.
With B2, the OD450 is 0.08.
In turn, B4 gave an OD450 of 2.1.
For B5, the OD450 came out at 0.1.

The target of another experiment is T1, human MSLN-R3-3 polypeptide. As to the kind of experiment: ELISA, coated antigen, antibody 10 nM.
Protocol: as §1
In the case of B1, the OD450 is 0.67.
The same measure, in the same setting: then B2, with 0.04.
On the same count and under the same terms, the value for B3 was 0.05; that for B4 was 0.06; that for B5 was 0.06.

The target in the next experiment is T2, human MSLN-R3-his protein. As to the kind of experiment: ELISA, coated antigen, antibody 1 nM.
Protocol: as §1
The molecule B1 showed an OD450 of 2.32.
On the same count and under the same terms, the value for B2 was 0.04.
In turn, B4 displayed an OD450 of 1.82.
Turning to B5, the OD450 was 0.11.

The next experiment deals with T2, human MSLN-R3-his protein. As to the kind of experiment: ELISA, coated antigen, no antibody (blank).
Protocol: as §1
As for B1, the OD450 was found to be 0.05.
For B2, the OD450 was 0.05.
The molecule B4 displayed an OD450 of 0.07.
On the same count and under the same terms, the value for B5 was 0.07.

A further experiment addresses T2, human MSLN-R3-his protein. As to the kind of experiment: ELISA, coated antigen, antibody 0.1 nM.
Protocol: as §1
On to B1, for which the OD450 is 1.82.
Regarding B2, the OD450 was determined as 0.04.
B4 registered an OD450 of 1.31.
Same read-out and setting: the value for B5 was 0.17.

A further experiment deals with T1, human MSLN-R3-3 polypeptide. As to the kind of experiment: ELISA, coated antigen, antibody 1 nM.
Protocol: as §1
On to B1, for which the OD450 worked out at 0.13.
As to B2, the OD450 was 0.04.
Still for that read-out and setting: the value for B3 was 0.05; that for B4 was 0.05; that for B5 was 0.05.

Another experiment deals with T2, human MSLN-R3-his protein. As to the kind of experiment: ELISA, coated antigen, antibody 10 nM.
Protocol: as §1
Molecule B1 displayed an OD450 of 2.36.
The same measure, in the same setting: then B2, with 0.05; and B4, with 1.93; and B5, with 0.07.

In the next experiment the target is T2, human MSLN-R3-his protein. As to the kind of experiment: ELISA, coated antigen, antibody 0.001 nM.
Protocol: as §1
For the molecule B1, the OD450 came out at 0.26.
Same read-out and setting: then B2, with 0.05.
On to B4, for which the OD450 was 0.09.
The molecule B5 yielded an OD450 of 0.05.

Another experiment addresses T1, human MSLN-R3-3 polypeptide. As to the kind of experiment: ELISA, coated antigen, antibody 0.0001 nM.
Protocol: as §1
As for B1, the OD450 was determined as 0.05.
The same measure, in the same setting: then B2, with 0.05; and B3, with 0.04.
The same measure, in the same setting: the value for B4 was 0.06; that for B5 was 0.06.
